Test results published in patent US20240092898A1.

Tests used:
CD7 on cells (human) [1] = molecular target: CD7 on cells (human) (UniProt P09564); experiment: flow cytometry on cells; cell line and unit not stated
CD7 on cells (human) [2] = molecular target: CD7 on cells (human) (UniProt P09564); experiment: flow cytometry on cells; ratio to 7-PP-1 WT
CD33 (human) = CD33 (human) (UniProt P20138); experiment: SPR
CD33 (human), sequence (P20138 18-259 limits assumed): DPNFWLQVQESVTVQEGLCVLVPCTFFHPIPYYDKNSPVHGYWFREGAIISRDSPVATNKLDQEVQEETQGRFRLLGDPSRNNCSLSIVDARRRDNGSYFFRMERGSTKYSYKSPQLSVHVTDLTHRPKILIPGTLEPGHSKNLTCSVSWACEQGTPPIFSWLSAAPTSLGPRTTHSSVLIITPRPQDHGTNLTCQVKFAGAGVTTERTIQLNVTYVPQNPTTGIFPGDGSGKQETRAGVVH

CD7 on cells (human), sequence (P09564 26-240): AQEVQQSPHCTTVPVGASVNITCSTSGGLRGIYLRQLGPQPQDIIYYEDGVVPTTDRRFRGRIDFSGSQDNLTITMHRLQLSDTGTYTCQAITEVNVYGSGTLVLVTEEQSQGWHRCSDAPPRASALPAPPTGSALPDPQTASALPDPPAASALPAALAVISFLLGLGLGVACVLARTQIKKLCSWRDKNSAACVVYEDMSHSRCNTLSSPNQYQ

Row | FACS binding (CD7 on cells (human) [1]) | FACS fold reduction compared to PP WT (CD7 on cells (human) [2]) [fold] | Kd (CD33 (human)) [nM] | Binder
1 | 267 | 502 | – | CD7-PP-7 (Fab, V domains shown) VH: QVQLQESGAELVKPGASVKLSCKASGYTFTSYWMHWVKQRPGQGLEWIGKINPSNGGTNYNEKFKSKATLTVDKSSSTAYMQLSSLTSEDSAVYYCARGGVYYDLYYAALDYWGQGTTVTVSS VL: DIELTQSPATLSVTPGDSVSLSCRASQSISNNLHWYQQKSHESPRLLIKSASQSISGIPSRFSGSGSGTDFTLSINSVETEDFGMYFCQQSNSWPYTFGGGTKLEIKR
2 | – | – | 1.36 | CD33-PP-1-WT (Fab, from another filing, V domains shown) VH: EVQLVQSGAEVKKPGSSVKVSCKASGYTITDSNIHWVRQAPGQSLEWIGYIYPYNGGTDYNQKFKNRATLTVDNPTNTAYMELSSLRSEDTAFYYCVNGNPWLAYWGQGTLVTVSS VL: DIQLTQSPSTLSASVGDRVTIICRASESLDNYGIRFLTWFQQKPGKAPKLLMYAASNQGSGVPSRFSGSGSGTEFTLTISSLQPDDFATYYCQQTKEVPWSFGQGTKLEIK
